Measured values reported in patent publication US20130253037.

Assays:
[1] = target: 6-His-LIMK2 (recombinant, E. coli) (UniProt P53671)
[2] = tested on: 6-His-cofilin
[3] = target: 6-His-PHLDA1 (recombinant, E. coli) (UniProt Q8WV24)
6-His-PHLDA1 (recombinant, E. coli), sequence (Q8WV24 whole entry): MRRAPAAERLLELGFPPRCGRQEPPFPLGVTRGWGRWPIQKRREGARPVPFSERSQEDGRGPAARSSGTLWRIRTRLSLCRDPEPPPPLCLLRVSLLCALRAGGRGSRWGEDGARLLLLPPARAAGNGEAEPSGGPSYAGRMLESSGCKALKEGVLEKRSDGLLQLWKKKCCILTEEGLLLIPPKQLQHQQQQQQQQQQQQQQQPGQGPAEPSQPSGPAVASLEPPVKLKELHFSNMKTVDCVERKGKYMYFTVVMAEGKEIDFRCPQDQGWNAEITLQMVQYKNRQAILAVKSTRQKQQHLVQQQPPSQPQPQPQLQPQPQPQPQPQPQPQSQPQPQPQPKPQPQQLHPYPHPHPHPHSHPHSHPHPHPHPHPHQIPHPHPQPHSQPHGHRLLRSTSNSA

6-His-LIMK2 (recombinant, E. coli), sequence (P53671 whole entry, looked up): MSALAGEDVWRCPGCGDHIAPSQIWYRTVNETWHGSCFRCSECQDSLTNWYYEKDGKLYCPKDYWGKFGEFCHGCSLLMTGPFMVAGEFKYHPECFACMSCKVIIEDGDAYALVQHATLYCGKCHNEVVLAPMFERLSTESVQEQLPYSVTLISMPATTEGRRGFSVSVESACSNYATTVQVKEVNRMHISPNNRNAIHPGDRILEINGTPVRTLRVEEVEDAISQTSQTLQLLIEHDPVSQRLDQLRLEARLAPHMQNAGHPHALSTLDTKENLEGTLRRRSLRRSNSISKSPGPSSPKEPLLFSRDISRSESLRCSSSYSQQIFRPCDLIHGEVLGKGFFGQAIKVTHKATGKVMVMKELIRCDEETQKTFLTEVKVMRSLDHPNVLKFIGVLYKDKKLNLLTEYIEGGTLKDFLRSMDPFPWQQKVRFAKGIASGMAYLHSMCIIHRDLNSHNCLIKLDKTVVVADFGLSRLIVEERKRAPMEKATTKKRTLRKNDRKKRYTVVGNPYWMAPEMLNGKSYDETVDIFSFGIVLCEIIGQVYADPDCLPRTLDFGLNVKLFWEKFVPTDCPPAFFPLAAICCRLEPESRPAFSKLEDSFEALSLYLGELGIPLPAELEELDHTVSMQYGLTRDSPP

6-His-Aurora-A (recombinant, wild type, from Sf9 insect cells)
LIMK2 kinase activity (cofilin phosphorylation) after pre-incubation with Aurora A [1]: LIMK2 preincubated with Aurora A showed increased kinase activity (lane 2)
in vitro kinase assay with recombinant Aurora A/TPX2 and 6-His-LIMK2 (phosphorylation of LIMK2) [1]: Aurora A directly phosphorylates LIMK2 (FIG. 5A, lane 2)
in vitro phosphorylation of wild-type, S283A, T494A and T505A LIMK2 alleles by Aurora A/TPX2 [1]: Aurora A phosphorylates LIMK2 at all these sites (FIG. 8A)
in vitro kinase assay, cofilin phosphorylation with [32P] ATP [2]: Aurora A does not phosphorylate cofilin (FIG. 6H, lanes 1 and 4)
in vitro kinase assay with Aurora A/TPX2 and [γ-32P]ATP (phosphorylation of PHLDA1) [3]: Aurora A directly phosphorylated PHLDA1 (FIG. 1A, lane 2)
in vitro phosphorylation of wild-type, Ser78A and Ser98A PHLDA1 alleles by Aurora A/TPX2 [3]: Aurora A was found to predominantly phosphorylate PHLDA1 at Ser98 (FIG. 2C)
